The source of these data is patent US20160355588A1 (published 2016).

Read-outs that look alike come from different tables or passages of the source.

The target of experiment [1] is T1, CD3 on Jurkat T cells (human, UniProt P07766 23-207).
Experiment [2] deals with T1, CD3 on Jurkat T cells. This is another data set of the same source.
The target of experiment [3] is T1, CD3 on Jurkat T cells. The experiment is described as follows: whole cell binding.
Experiment [4] has as its target T1, CD3 on Jurkat T cells. The experiment is described as follows: whole cell binding. The source holds these as a separate data set.
Experiment [5] concerns the target v6475. As to the kind of experiment: whole cell binding.
In experiment [6] the target is v1653. As to the kind of experiment: whole cell binding.

B1: v6750 (bispecific antibody)
heavy: QVQLQQSGAELVRPGSSVKISCKASGYAFSSYWMNWVKQRPGQGLEWIGQIWPGDGDTNYNGKFKGKATLTADESSSTAYMQLSSLASEDSAVYFCARRETTTVGRYYYAMDYWGQGTTVTVSSASTKGPSVFPLAPSSKSTSGGTAALGCLVKDYFPEPVTVSWNSGALTSGVHTFPAVLQSSGLYSLSSVVTVPSSSLGTQTYICNVNHKPSNTKVDKKVEPKSCDKTHTCPPCPAPELLGGPSVFLFPPKPKDTLMISRTPEVTCVVVDVSHEDPEVKFNWYVDGVEVHNAKTKPREEQYNSTYRVVSVLTVLHQDWLNGKEYKCKVSNKALPAPIEKTISKAKGQPREPQVYVYPPSRDELTKNQVSLTCLVKGFYPSDIAVEWESNGQPENNYKTTPPVLDSDGSFALVSKLTVDKSRWQQGNVFSCSVMHEALHNHYTQKSLSLSPG
chain: not shown
light: not shown
With B1, the Kd in experiment [1] and in experiment [2] was about 30 nM throughout.

B2: v875 (bispecific antibody)
chain 1: DIQLTQSPASLAVSLGQRATISCKASQSVDYDGDSYLNWYQQIPGQPPKLLIYDASNLVSGIPPRFSGSGSGTDFTLNIHPVEKVDAATYHCQQSTEDPWTFGGGTKLEIKGGGGSGGGGSGGGGSQVQLQQSGAELVRPGSSVKISCKASGYAFSSYWMNWVKQRPGQGLEWIGQIWPGDGDTNYNGKFKGKATLTADESSSTAYMQLSSLASEDSAVYFCARRETTTVGRYYYAMDYWGQGTTVTVSSAAEPKSSDKTHTCPPCPAPELLGGPSVFLFPPKPKDTLMISRTPEVTCVVVDVSHEDPEVKFNWYVDGVEVHNAKTKPREEQYNSTYRVVSVLTVLHQDWLNGKEYKCKVSNKALPAPIEKTISKAKGQPREPQVYTYPPSRDELTKNQVSLTCLVKGFYPSDIAVEWESNGQPENNYKTTPPVLDSDGSFALVSKLTVDKSRWQQGNVFSCSVMHEALHNHYTQKSLSLSPGK
chain 2: not shown
With B2, the Kd in experiment [3] and in experiment [4] was about 30 nM throughout.

B3: v1853 (bispecific antibody)
heavy: QVQLVQSGGGVVQPGRSLRLSCKASGYTFTRYTMHWVRQAPGKGLEWIGYINPSRGYTNYNQKVKDRFTISRDNSKNTAFLQMDSLRPEDTGVYFCARYYDDHYCLDYWGQGTPVTVSSASTKGPSVFPLAPSSKSTSGGTAALGCLVKDYFPEPVTVSWNSGALTSGVHTFPAVLQSSGLYSLSSVVTVPSSSLGTQTYICNVNHKPSNTKVDKKVEPKSCDKTHTCPPCPAPELLGGPSVFLFPPKPKDTLMISRTPEVTCVVVDVSHEDPEVKFNWYVDGVEVHNAKTKPREEQYNSTYRVVSVLTVLHQDWLNGKEYKCKVSNKALPAPIEKTISKAKGQPREPQVYVYPPSRDELTKNQVSLTCLVKGFYPSDIAVEWESNGQPENNYKTTPPVLDSDGSFALVSKLTVDKSRWQQGNVFSCSVMHEALHNHYTQKSLSLSPGK
chain: not shown
light: DIQMTQSPSSLSASVGDRVTITCSASSSVSYMNWYQQTPGKAPKRWIYDTSKLASGVPSRFSGSGSGTDYTFTISSLQPEDIATYYCQQWSSNPFTFGQGTKLQITRTVAAPSVFIFPPSDEQLKSGTASVVCLLNNFYPREAKVQWKVDNALQSGNSQESVTEQDSKDSTYSLSSTLTLSKADYEKHKVYACEVTHQGLSSPVTKSFNRGEC
As to B3, the equilibrium dissociation constant (Kd) in experiment [3] and in experiment [4] was about 5 nM throughout.

B4: Raji B cells (receptor)
chain: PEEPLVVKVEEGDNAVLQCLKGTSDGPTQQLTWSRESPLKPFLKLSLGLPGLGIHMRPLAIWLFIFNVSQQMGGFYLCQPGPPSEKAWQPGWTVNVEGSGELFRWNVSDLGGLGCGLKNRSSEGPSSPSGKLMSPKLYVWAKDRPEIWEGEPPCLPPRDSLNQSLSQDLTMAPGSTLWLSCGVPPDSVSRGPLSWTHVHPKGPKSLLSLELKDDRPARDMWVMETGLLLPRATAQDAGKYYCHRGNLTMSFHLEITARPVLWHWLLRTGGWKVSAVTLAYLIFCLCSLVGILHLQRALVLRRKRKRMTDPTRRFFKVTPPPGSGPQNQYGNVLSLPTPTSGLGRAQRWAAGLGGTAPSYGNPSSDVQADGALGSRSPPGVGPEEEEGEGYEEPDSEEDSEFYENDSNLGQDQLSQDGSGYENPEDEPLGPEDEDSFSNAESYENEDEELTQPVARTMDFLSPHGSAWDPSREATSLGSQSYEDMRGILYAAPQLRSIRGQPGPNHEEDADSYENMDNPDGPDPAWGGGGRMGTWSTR
As for B4, the dissociation constant Kd in experiment [5] was 1.5 nM; in experiment [6], 1.4 nM.

A word on the Kd: it is the free concentration of one partner at which half of the binding sites on the other are occupied at equilibrium, for simple one-to-one binding. A high value points to lower affinity.
